What all share (experiment): EMSA
One data set has as its target T1, Cdc13-DBD (Saccharomyces cerevisiae, UniProt P32797 497-694).
T1 sequence: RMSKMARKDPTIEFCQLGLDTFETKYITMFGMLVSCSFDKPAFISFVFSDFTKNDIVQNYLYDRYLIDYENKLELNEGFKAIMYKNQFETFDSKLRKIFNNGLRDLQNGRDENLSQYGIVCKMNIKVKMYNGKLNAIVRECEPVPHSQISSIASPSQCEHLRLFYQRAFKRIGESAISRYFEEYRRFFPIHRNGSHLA

Another data set has as its target T2, Cdc13-K622A (Saccharomyces cerevisiae, UniProt P32797 1-924, K622A).
T2 sequence: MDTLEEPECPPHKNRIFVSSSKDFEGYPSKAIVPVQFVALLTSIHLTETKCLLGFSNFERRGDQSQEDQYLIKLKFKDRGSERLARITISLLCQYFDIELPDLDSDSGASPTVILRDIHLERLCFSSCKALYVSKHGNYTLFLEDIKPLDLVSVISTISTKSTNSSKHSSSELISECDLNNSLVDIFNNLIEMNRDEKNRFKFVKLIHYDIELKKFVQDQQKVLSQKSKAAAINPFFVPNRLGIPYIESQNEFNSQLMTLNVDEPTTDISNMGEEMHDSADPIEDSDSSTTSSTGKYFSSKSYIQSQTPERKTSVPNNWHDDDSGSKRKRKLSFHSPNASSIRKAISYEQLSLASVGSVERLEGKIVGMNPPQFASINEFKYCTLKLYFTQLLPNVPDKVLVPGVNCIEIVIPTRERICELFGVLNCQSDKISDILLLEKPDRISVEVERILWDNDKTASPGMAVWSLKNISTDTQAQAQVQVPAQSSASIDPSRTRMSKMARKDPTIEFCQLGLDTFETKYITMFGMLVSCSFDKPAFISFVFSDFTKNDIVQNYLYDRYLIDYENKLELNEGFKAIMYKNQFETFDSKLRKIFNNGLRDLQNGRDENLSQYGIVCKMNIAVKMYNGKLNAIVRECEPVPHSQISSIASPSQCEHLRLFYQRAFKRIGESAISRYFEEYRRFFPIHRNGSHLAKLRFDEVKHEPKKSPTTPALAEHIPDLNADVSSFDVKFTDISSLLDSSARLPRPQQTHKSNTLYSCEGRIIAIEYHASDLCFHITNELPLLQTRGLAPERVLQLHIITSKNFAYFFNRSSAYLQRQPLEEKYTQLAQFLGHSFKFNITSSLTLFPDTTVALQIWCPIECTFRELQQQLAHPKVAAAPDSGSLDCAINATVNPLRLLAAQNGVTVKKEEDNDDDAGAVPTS

The target in a further data set is T3, Cdc13-MOB-DBD (Saccharomyces cerevisiae, UniProt P32797 344-694).
T3 sequence: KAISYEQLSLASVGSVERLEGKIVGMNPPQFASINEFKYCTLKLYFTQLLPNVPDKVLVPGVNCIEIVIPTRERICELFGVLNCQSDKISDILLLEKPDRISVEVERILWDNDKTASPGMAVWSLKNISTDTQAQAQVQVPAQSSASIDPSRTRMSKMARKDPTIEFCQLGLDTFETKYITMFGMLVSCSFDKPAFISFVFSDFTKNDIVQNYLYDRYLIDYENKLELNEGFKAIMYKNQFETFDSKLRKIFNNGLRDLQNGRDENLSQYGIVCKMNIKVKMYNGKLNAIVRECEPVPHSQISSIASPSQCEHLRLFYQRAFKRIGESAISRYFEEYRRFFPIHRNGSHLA

Another data set has as its target T4, Cdc13-F539A (Saccharomyces cerevisiae, UniProt P32797 1-924, F539A).
T4 sequence: T2 sequence with F539A, A622K

Where a chain is given by its changes, count along the chain named.

The Kd is the constant that tells how readily two partners part at equilibrium. A lower Kd goes with a tighter complex.

On to GTGTGGGTGTG (ssDNA) [Tel11], for which the dissociation constant Kd in the data set with Cdc13-DBD worked out at 0.0034 ± 0.0005 nM; in the data set with Cdc13-K622A it was 0.05 ± 0.003 nM; with Cdc13-MOB-DBD, 0.0023 ± 0.0002 nM; with Cdc13-F539A, 0.14 ± 0.02 nM.

(Values after article PMC3874162 (Nucleic Acids Research, 2013).)
